Assay results as given in patent US11147859B2, “Diffusion enhancing compounds and their use alone or with thrombolytics” (Diffusion Pharmaceuticals LLC, priority 2009, dated 2021).

System: rabbit small clot embolic stroke model (RSCEM)
Assay: Rabbit small clot embolic stroke model (RSCEM), quantal dose-response analysis of behavior
Assay type: in vivo, Male New Zealand white rabbits
Details: for group P50: Mean±SEM
Excerpt: Methods: This model uses rabbits and is known as RSCEM. Male New Zealand white rabbits were anesthetized using isoflurane (5% induction, 2% maintenance by facemask), the bifurcation of the right carotid artery was exposed and the external carotid was ligated just distal to the bifurcation, where a catheter was inserted into the common carotid and secured with ligatures. The incision was closed around the catheter with the distal ends left accessible outside the neck; the catheter was filled with heparinized saline and plugged with an injection cap. Rabbits were allowed to recover from anesthesia for a minimum of 2 h until they behaved normally. After that time, microdots were prepared from blood drawn from a donor rabbit and allowed to clot at 37° C., as described in detail previously. Microclots were re-suspended in PBS, then washed and allowed to settle, followed by aspiration of the supernatant and spiking of the microclots with tracer quantities of 15-μm radiolabeled microspheres. The specific activity of the particles was determined by removing an aliquot, after which appropriate volumes of PBS solution were added so that a predetermined weight of clot particles were rapidly injected through the catheter and both the syringe and catheter were flushed with 5 ml of normal saline.
Quantal Dose-Response Analysis: For behavioral analysis, a quantal dose-response data analysis technique was used as described previously. A wide range of lesion volumes is induced to generate both normal and abnormal animals with various behavioral deficits. […] Briefly, to evaluate the quantitative relationship between numbers of clots in the brain and neurological deficits (coma or death), logistic (S-shaped) curves are fitted by computer to the quantal dose-response data (see FIGS. 1 and 2).
These parameters are measures of the amount of microclots (in mg) that produce neurologic dysfunction in 50% of a group of animals (P50). The P50 values are then calculated as described previously and are presented as Mean±SEM. […] The data were analyzed using the t-test. […]

B1: tPA: Tissue plasminogen activator, a protein thrombolytic agent (clot-busting drug); Genentech lots (protein, UniProt P00750 36-562, looked up)
Tissue-type plasminogen …: SYQVICRDEKTQMIYQQHQSWLRPVLRSNRVEYCWCNSGRAQCHSVPVKSCSEPRCFNGGTCQQALYFSDFVCQCPEGFAGKCCEIDTRATCYEDQGISYRGTWSTAESGAECTNWNSSALAQKPYSGRRPDAIRLGLGNHNYCRNPDRDSKPWCYVFKAGKYSSEFCSTPACSEGNSDCYFGNGSAYRGTHSLTESGASCLPWNSMILIGKVYTAQNPSAQALGLGKHNYCRNPDGDAKPWCHVLKNRRLTWEYCDVPSCSTCGLRQYSQPQFRIKGGLFADIASHPWQAAIFAKHRRSPGERFLCGGILISSCWILSAAHCFQERFPPHHLTVILGRTYRVVPGEEEQKFEVEKYIVHKEFDDDTYDNDIALLQLKSDSSRCAQESSVVRTVCLPPADLQLPDWTECELSGYGKHEALSPFYSERLKEAHVRLYPSSRCTSQHLLNRTVTDNMLCAGDTRSGGPQANLHDACQGDSGGPLVCLNDGRMTLVGIISWGLGCGQKDVPGVYTKVTNYLDWIRDNMRP
group P50 (tPA 3.3 mg/kg IV given 1 hour following embolization): 2.48 ± 0.17 mg | group P50 (tPA 3.3 mg/kg IV given 3 hours following embolization): 1.00 ± 0.56 mg | effect on behavior / P50 value (in words) (tPA given 3 hours following embolization): ineffective
